Results as given in PMC4156082.
Blank lines part the entries; values can stand above or below the molecule they belong to.

Columns and labels:
[1] = molecular target: Soluble RhoA (residues 1–181) (UniProt P61586); test: SPR; Biacore 3000; His6-RhoA loaded with GDPβS (RhoA-GDP) held on a nitrilotriacetic acid chip; untagged onco-Lbc or DHαPH injected (0–5 μM); PBS pH 7.4, 1 mM MgCl2; reference lane His6-ubiquitin; constant of onco-Lbc called apparent (two sites)
[2] = molecular target: Soluble RhoA (residues 1–181) (UniProt P61586); test: SPR; Biacore 3000; His6-RhoA loaded with GTPγS (RhoA-GTP) held on a nitrilotriacetic acid chip; untagged onco-Lbc or DHαPH injected (0–5 μM); PBS pH 7.4, 1 mM MgCl2; reference lane His6-ubiquitin; constant of onco-Lbc called apparent (two sites)
[3] = molecular target: Soluble RhoA (residues 1–181) (UniProt P61586)
[4] = molecular target: Soluble RhoA (residues 1–181) (UniProt P61586); remark: listed apart in the source

Chain of UniProt P61586 (P61586 1-181): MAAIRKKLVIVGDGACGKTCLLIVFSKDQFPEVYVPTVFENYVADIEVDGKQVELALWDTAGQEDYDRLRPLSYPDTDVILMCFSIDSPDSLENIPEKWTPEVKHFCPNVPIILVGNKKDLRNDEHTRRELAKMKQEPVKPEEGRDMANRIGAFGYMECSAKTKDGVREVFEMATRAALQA

- Kd [1]: > 50000 nM
- Kd [2]: 2930 nM
Molecule: AKAP-Lbc construct encompassing residues 2164–2346 (DHαPH) (from UniProt Q12802 2164-2346) (domain or fragment)

- Kd [1]: 2880 nM
- Kd [2]: 2210 nM
Molecule: onco-Lbc (AKAP13 residues 1922–2346) (domain or fragment)

- relative activity (specific exchange activity, DH-PH = 1) (fold of DH-PH) [3]: 0.27
- specific exchange activity (Mant-GDP on RhoA replaced by GMP-PNP) [3]: 1070 s⁻¹ M⁻¹
- GEF activity: exchange of GDP to Mant-GTP on RhoA, wild-type onco-Lbc = 100 (% of wild-type onco-Lbc) [4]: 8.4
Molecule: onco-Lbc E2001A (domain or fragment)

- relative activity (specific exchange activity, DH-PH = 1) (fold of DH-PH) [3]: 1.86
- specific exchange activity (Mant-GDP on RhoA replaced by GMP-PNP) [3]: 7300 s⁻¹ M⁻¹
- GEF activity: exchange of GDP to Mant-GTP on RhoA, wild-type onco-Lbc = 100 (% of wild-type onco-Lbc) [4]: 148
Molecule: onco-Lbc E2319A (domain or fragment)

- relative activity (specific exchange activity, DH-PH = 1) (fold of DH-PH) [3]: 0.11
- specific exchange activity (Mant-GDP on RhoA replaced by GMP-PNP) [3]: 440 s⁻¹ M⁻¹
- GEF activity: exchange of GDP to Mant-GTP on RhoA, wild-type onco-Lbc = 100 (% of wild-type onco-Lbc) [4]: 23.3
Molecule: onco-Lbc F2299A (domain or fragment)

- relative activity (specific exchange activity, DH-PH = 1) (fold of DH-PH) [3]: 0.06
- specific exchange activity (Mant-GDP on RhoA replaced by GMP-PNP) [3]: 230 s⁻¹ M⁻¹
- GEF activity: exchange of GDP to Mant-GTP on RhoA, wild-type onco-Lbc = 100 (% of wild-type onco-Lbc) [4]: 7.4
Molecule: onco-Lbc R2136G (domain or fragment)

- relative activity (specific exchange activity, DH-PH = 1) (fold of DH-PH) [3]: 0.17
- specific exchange activity (Mant-GDP on RhoA replaced by GMP-PNP) [3]: 680 s⁻¹ M⁻¹
- GEF activity: exchange of GDP to Mant-GTP on RhoA, wild-type onco-Lbc = 100 (% of wild-type onco-Lbc) [4]: 10.9
Molecule: onco-Lbc R2289A (domain or fragment)

- relative activity (specific exchange activity, DH-PH = 1) (fold of DH-PH) [3]: 3.7
- specific exchange activity (Mant-GDP on RhoA replaced by GMP-PNP) [3]: 14300 s⁻¹ M⁻¹
- GEF activity: exchange of GDP to Mant-GTP on RhoA, wild-type onco-Lbc = 100 (% of wild-type onco-Lbc) [4]: 174
B1: isolated DH domain of onco-Lbc (AKAP13 residues 1992–2210) (domain or fragment)
chain: VVKRQEVIYELMQTEFHHVRTLKIMSGVYSQGMMADLLFEQQMVEKLFPCLDELISIHSQFFQRILERKKESLVDKSEKNFLIKRIGDVLVNQFSGENAERLKKTYGKFCGQHNQSVNYFKDLYAKDKRFQAFVKKKMSSSVVRRLGIPECILLVTQRITKYPVLFQRILQCTKDNEVEQEDLAQSLSLVKDVIGAVDSKVASYEKKVRLNEIYTKTDS
